Assay results as given in US20220056125A1 (CEPHALON, published 2022).
Substitutions are numbered along the chain they refer to. “And” between values parts separate entries of the source, which are not always exact repeats. Equal entries are not always repeated.

T1: human PAR-2 (human, UniProt P55085 26-397)
T1 sequence: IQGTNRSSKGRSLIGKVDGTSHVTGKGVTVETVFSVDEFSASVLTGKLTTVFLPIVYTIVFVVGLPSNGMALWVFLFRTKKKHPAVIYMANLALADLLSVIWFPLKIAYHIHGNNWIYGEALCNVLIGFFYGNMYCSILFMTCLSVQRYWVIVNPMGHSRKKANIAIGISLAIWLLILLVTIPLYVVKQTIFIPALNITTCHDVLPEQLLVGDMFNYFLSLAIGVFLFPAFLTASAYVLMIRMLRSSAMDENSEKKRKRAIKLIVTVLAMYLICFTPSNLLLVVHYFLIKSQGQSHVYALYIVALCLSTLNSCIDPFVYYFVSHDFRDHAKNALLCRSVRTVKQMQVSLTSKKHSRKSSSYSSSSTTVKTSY

B1: P24E915 (antibody, human IgG4 S228P, kappa, V domains shown)
VH: QVQLVQSGAEVKKPGSSVKVSCKASGFSLSSYAISWVRQAPGQGLEWMGVIWGNGNTYYAQKFQGRVTITADESTSTAYMELSSLRSEDTAVYYCARWKGYKDYPFDYWGQGTLVTVSS
VL: EIVLTQSPATLSLSPGERATLSCKASQNVYKWLDWYQQKPGQAPRLLIYNAYSLATGIPARFSGSGSGRDFTLTISSLEPEDFAVYYCQQHNSGWTFGGGTKVEIKR
B2: P24E930 (antibody, human IgG4 S228P, kappa, V domains shown)
VH: B1 VH with T57V
VL: B1 VL with K24R, L54R, N92G
B3: P24E923 (antibody, human IgG4 S228P, kappa, V domains shown)
VH: B1 VH with K99R, Y101W
VL: B1 VL
B4: P24E279 (antibody, human IgG4 S228P, kappa, V domains shown)
VH: B1 VH with A33G, I34V, S35I, K99R
VL: B1 VL with K24R, V29I, W32Y, A51T, Y52N, Q89L
B5: P24E22 (antibody, human IgG4 S228P, kappa, V domains shown)
VH: B1 VH with S30N, A33G, I34V, S35I, K99R
VL: B1 VL with V29I, W32Y, A51T, Y52N, A55H, Q89L
B6: P24E975 (antibody, human IgG4 S228P, kappa, V domains shown)
VH: B1 VH with G55Q, T57V
VL: B1 VL with K24R, L54R, N92H, S93H
B7: P24E953 (antibody, human IgG4 S228P, kappa, V domains shown)
VH: B1 VH with G55Q, T57V
VL: B1 VL with K24R, N50D, L54R, N92G
B8: P24E281 (antibody, human IgG4 S228P, kappa, V domains shown)
VH: B1 VH with A33G, I34V, S35I, K99R
VL: B1 VL with V29I, W32Y, Y52N, Q89L
B9: P24E977 (antibody, human IgG4 S228P, kappa, V domains shown)
VH: B1 VH with G55Q, T57V
VL: B1 VL with K24R, N50D, L54R, N92H
B10: P24E971 (antibody, human IgG4 S228P, kappa, V domains shown)
VH: B1 VH with T57V
VL: B1 VL with K24R, L54R, N92H
B11: P24E216 (antibody, human IgG4 S228P, kappa, V domains shown)
VH: B1 VH with S30N, S31Y, A33G, I34V, S35I, A60N, K99R
VL: B1 VL with V29I, W32Y, A51T, Y52N, A55H, Q89L
B12: P24E219 (antibody, human IgG4 S228P, kappa, V domains shown)
VH: B1 VH with S30N, A33G, I34G, S35I, A60N, K99R
VL: B1 VL with V29I, W32Y, A51T, Y52N, A55H, Q89L
B13: P24E233 (antibody, human IgG4 S228P, kappa, V domains shown)
VH: B1 VH with S30N, A33G, I34V, S35I, A60Y, K99R
VL: B1 VL with V29I, W32Y, A51T, Y52N, A55H, Q89L
B14: P24E917 (antibody, human IgG4 S228P, kappa, V domains shown)
VH: B1 VH
VL: B1 VL with N92G
B15: P24E922 (antibody, human IgG4 S228P, kappa, V domains shown)
VH: B1 VH with K99R, Y101W
VL: B1 VL with K24R, V29I
B16: P24E918 (antibody, human IgG4 S228P, kappa, V domains shown)
VH: B1 VH with K99R, Y101F
VL: B1 VL with K24R, V29I
B17: P24E280 (antibody, human IgG4 S228P, kappa, V domains shown)
VH: B1 VH with A33G, I34V, S35I, K99R
VL: B1 VL with W32Y, A51T, Y52N, Q89L
B18: P24E935 (antibody, human IgG4 S228P, kappa, V domains shown)
VH: B1 VH with T57V, Y104H
VL: B1 VL with K24R, L54R, N92H, S93H
B19: P24E920 (antibody, human IgG4 S228P, kappa, V domains shown)
VH: B1 VH with K99R, Y101F
VL: B1 VL with K24R, L54R
B20: P24E972 (antibody, human IgG4 S228P, kappa, V domains shown)
VH: B1 VH with T57V
VL: B1 VL with K24R, L54R, N92H, S93H
B21: P24E60 (antibody, human IgG4 S228P, kappa, V domains shown)
VH: B1 VH with S30N, A33G, I34V, S35I, A60N, K99R
VL: B1 VL with V29I, A51T, Y52N, A55H, Q89L
B22: P24E933 (antibody, human IgG4 S228P, kappa, V domains shown)
VH: B1 VH
VL: B1 VL with K24R, L54R, N92G
B23: P24E973 (antibody, human IgG4 S228P, kappa, V domains shown)
VH: B1 VH with T57V
VL: B1 VL with K24R, L54R, N92G, S93H
B24: P24E41 (antibody, human IgG4 S228P, kappa, V domains shown)
VH: B1 VH with S30N, A33G, I34V, S35I, A60N, K99R
VL: B1 VL with V29I, W32Y, N50D, Y52S, S53N, L54R, Q89L
B25: P24E978 (antibody, human IgG4 S228P, kappa, V domains shown)
VH: B1 VH with G55Q, T57V
VL: B1 VL with K24R, N50D, L54R, N92H, S93H
B26: P24E924 (antibody, human IgG4 S228P, kappa, V domains shown)
VH: B1 VH with K99R, Y101W
VL: B1 VL with K24R, L54R
B27: P24E936 (antibody, human IgG4 S228P, kappa, V domains shown)
VH: B1 VH with T57V, Y104H
VL: B1 VL with K24R, L54R, N92G, S93H
B28: P24E9 (antibody, human IgG4 S228P, kappa, V domains shown)
VH: B1 VH with A33G, I34V, S35I, A60N, K99R
VL: B1 VL with V29I, W32Y, A51T, Y52N, A55H, Q89L
B29: P24E921 (antibody, human IgG4 S228P, kappa, V domains shown)
VH: B1 VH with K99R, Y101F
VL: B1 VL with N92G
B30: P24E61 (antibody, human IgG4 S228P, kappa, V domains shown)
VH: B1 VH with S30N, A33G, I34V, S35I, A60N, K99R
VL: B1 VL with V29I, W32F, A51T, Y52N, A55H, Q89L
B31: P24E282 (antibody, human IgG4 S228P, kappa, V domains shown)
VH: B1 VH with A33G, I34V, S35I, K99R
VL: B1 VL with V29I, W32Y, A51T, Y52N, L54R, Q89L
B32: P24E951 (antibody, human IgG4 S228P, kappa, V domains shown)
VH: B1 VH with G55Q, T57V
VL: B1 VL with K24R, L54R, N92G
B33: P24E916 (antibody, human IgG4 S228P, kappa, V domains shown)
VH: B1 VH
VL: B1 VL with K24R, L54R
B34: P24E40 (antibody, human IgG4 S228P, kappa, V domains shown)
VH: B1 VH with S30N, A33G, I34V, S35I, A60N, K99R
VL: B1 VL with V29I, W32Y, A51T, Y52N, Q89L
B35: P24E934 (antibody, human IgG4 S228P, kappa, V domains shown)
VH: B1 VH with T57V, Y104H
VL: B1 VL with K24R, L54R, N92H
B36: P24E932 (antibody, human IgG4 S228P, kappa, V domains shown)
VH: B1 VH with T57V
VL: B1 VL with K24R, V29I
B37: P24E186 (antibody, human IgG4 S228P, kappa, V domains shown)
VH: B1 VH with S30N, A33G, I34V, S35I, A60N, K99R, Y101W
VL: B1 VL with V29I, W32Y, A51T, Y52N, A55H, Q89L
B38: P24E232 (antibody, human IgG4 S228P, kappa, V domains shown)
VH: B1 VH with S30N, A33G, I34V, S35I, A60G, K99R
VL: B1 VL with V29I, W32Y, A51T, Y52N, A55H, Q89L
B39: P24E919 (antibody, human IgG4 S228P, kappa, V domains shown)
VH: B1 VH with K99R, Y101F
VL: B1 VL
B40: P24E931 (antibody, human IgG4 S228P, kappa, V domains shown)
VH: B1 VH with T57V
VL: B1 VL with N92G
B41: P24E278 (antibody, human IgG4 S228P, kappa, V domains shown)
VH: B1 VH with A33G, I34V, S35I, K99R
VL: B1 VL with V29I, W32Y, A51T, Y52N, Q89L

Molecular target: T1, human PAR-2
Experiment: cell-based or functional assay

B1 and B2 are within 1.5-fold of each other in “PAR-2 β-arrestin cell based assay IC50, 2 µM SLIGKV” value: 1.16 nM for the first, 1.4 nM for the second.

Going from B3 to B4, the “PAR-2 β-arrestin cell based assay IC50, 2 µM SLIGKV” value rises from 0.99 nM to 2.8 nM (2.8-fold).

First: B6
Second: B8
The “PAR-2 β-arrestin cell based assay IC50, 2 µM SLIGKV” value of the first is 3.5-fold lower: 0.75 nM for the first, 2.6 nM for the second.

B9 and B10 are within 1.5-fold of each other in “PAR-2 β-arrestin cell based assay IC50, 2 µM SLIGKV” value: 1.73 nM for the first, 2.4 nM for the second.

B14 and B15 are within 1.5-fold of each other in “PAR-2 β-arrestin cell based assay IC50, 2 µM SLIGKV” value: 0.93 nM for the first, 1.01 nM for the second.

Going from B16 to B17, the “PAR-2 β-arrestin cell based assay IC50, 2 µM SLIGKV” value rises from 1.18 nM to 1.9 nM (1.6-fold).

B18 and B19 are within 1.5-fold of each other in “PAR-2 β-arrestin cell based assay IC50, 2 µM SLIGKV” value: 1.5 nM for the first, 1.32 nM for the second.

B20 and B22 are within 1.5-fold of each other in “PAR-2 β-arrestin cell based assay IC50, 2 µM SLIGKV” value: 1.52 nM for the first, 1.4 nM for the second.

Going from B23 to B25, the “PAR-2 β-arrestin cell based assay IC50, 2 µM SLIGKV” value falls from 2.35 nM to 0.94 nM (2.5-fold).

First: B26
Second: B27
The “PAR-2 β-arrestin cell based assay IC50, 2 µM SLIGKV” value of the first is 2.3-fold lower: 0.79 nM for the first, 1.8 nM for the second.

B29 and B31 are within 1.5-fold of each other in “PAR-2 β-arrestin cell based assay IC50, 2 µM SLIGKV” value: 1.9 nM for the first, 2 nM for the second.

B33 and B35 are within 1.5-fold of each other in “PAR-2 β-arrestin cell based assay IC50, 2 µM SLIGKV” value: 1.1 nM for the first, 1.5 nM for the second.

B36 and B39 are within 1.5-fold of each other in “PAR-2 β-arrestin cell based assay IC50, 2 µM SLIGKV” value: 1.4 nM for the first, 1.44 nM for the second.

B40 and B41 are within 1.5-fold of each other in “PAR-2 β-arrestin cell based assay IC50, 2 µM SLIGKV” value: 2 nM for the first, 2.5 nM for the second.

For B2, the “PAR-2 β-arrestin cell based assay IC50 (SLIGKV mark missing)” value was 1.7 nM.

B5 and B11 are within 1.5-fold of each other in “PAR-2 β-arrestin cell based assay IC50, 1 µM SLIGKV” value: 2.5 nM for the first, 1.95 nM for the second.

B12 and B13 are within 1.5-fold of each other in “PAR-2 β-arrestin cell based assay IC50, 1 µM SLIGKV” value: 1.33 nM for the first, 1.77 nM for the second.

Compared with B21, B24 is 13-fold higher in “PAR-2 β-arrestin cell based assay IC50, 1 µM SLIGKV” value: 2.03 nM for the first, 26.9 nM for the second.

First: B28
Second: B30
The “PAR-2 β-arrestin cell based assay IC50, 1 µM SLIGKV” value of the first is 4.4-fold higher: 11.3 nM for the first, 2.56 nM for the second.

B34 and B37 are within 1.5-fold of each other in “PAR-2 β-arrestin cell based assay IC50, 1 µM SLIGKV” value: 2.47 nM for the first, 3.25 nM for the second.

For B38, the “PAR-2 β-arrestin cell based assay IC50, 1 µM SLIGKV” value was 1.99 nM.

B7 was tested, and the “PAR-2 β-arrestin cell based assay IC50, 2 µM SLIGKV” value was 3.64 nM and 1.84 nM.
For B32, the “PAR-2 β-arrestin cell based assay IC50, 2 µM SLIGKV” value was 2.55 nM and 1.17 nM.
